Measured values as given in PMC2776932 (The Febs Journal, 2009).

Target: T1, GFP-tagged Lsm188p (Lsm8p with the N-terminal domain of Lsm1p) (S. cerevisiae, UniProt P47017 1-51; P47093 11-109)
T1 chain (looked up): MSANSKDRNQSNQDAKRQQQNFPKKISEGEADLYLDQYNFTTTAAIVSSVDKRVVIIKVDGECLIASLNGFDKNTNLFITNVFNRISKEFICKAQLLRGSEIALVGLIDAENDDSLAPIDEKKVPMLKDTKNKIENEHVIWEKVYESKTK
Test: co-IP

B1: Lsm7–Myc (genomically encoded Lsm7p with 13myc tag) (natural protein, S. cerevisiae, UniProt P53905 1-115, looked up)
chain: MHQQHSKSENKPQQQRKKFEGPKREAILDLAKYKDSKIRVKLMGGKLVIGVLKGYDQLMNLVLDDTVEYMSNPDDENNTELISKNARKLGLTVIRGTILVSLSSAEGSDVLYMQK
- reduction of co-precipitated Lsm7p against wild-type: > 50 % reduction
